Experimental data: patent publication US20250332230A1

Assays:
[1] = target: Human Alkaline Phosphatase/ALPI Protein (His Tag) (Sino Biological Cat. No. 13225-H08H) (human) (UniProt P09923); assay: sandwich ECL (MSD), capture AbD54140ad; HC01, HIAP nominal 192.0 ng/mL
[2] = target: Human Alkaline Phosphatase/ALPI Protein (His Tag) (Sino Biological Cat. No. 13225-H08H) (human) (UniProt P09923); assay: sandwich ECL (MSD), capture AbD54140ad; HC02, HIAP nominal 192.0 ng/mL
[3] = target: Human Alkaline Phosphatase/ALPI Protein (His Tag) (Sino Biological Cat. No. 13225-H08H) (human) (UniProt P09923); assay: sandwich ECL (MSD), capture AbD54140ad; LC01, HIAP nominal 1.500 ng/mL
[4] = target: Human Alkaline Phosphatase/ALPI Protein (His Tag) (Sino Biological Cat. No. 13225-H08H) (human) (UniProt P09923); assay: sandwich ECL (MSD), capture AbD54140ad; LC02, HIAP nominal 1.500 ng/mL
[5] = target: Human Alkaline Phosphatase/ALPI Protein (His Tag) (Sino Biological Cat. No. 13225-H08H) (human) (UniProt P09923); assay: sandwich ECL (MSD), capture AbD54140ad; MC01, HIAP nominal 12.00 ng/mL
[6] = target: Human Alkaline Phosphatase/ALPI Protein (His Tag) (Sino Biological Cat. No. 13225-H08H) (human) (UniProt P09923); assay: sandwich ECL (MSD), capture AbD54140ad; MC02, HIAP nominal 12.00 ng/mL
[7] = target: Human Alkaline Phosphatase/ALPI Protein (His Tag) (Sino Biological Cat. No. 13225-H08H) (human) (UniProt P09923); assay: sandwich ECL (MSD), capture AbD54140ad; ST01, HIAP nominal 256.0 ng/mL
[8] = target: Human Alkaline Phosphatase/ALPI Protein (His Tag) (Sino Biological Cat. No. 13225-H08H) (human) (UniProt P09923); assay: sandwich ECL (MSD), capture AbD54140ad; ST02, HIAP nominal 128.0 ng/mL
[9] = target: Human Alkaline Phosphatase/ALPI Protein (His Tag) (Sino Biological Cat. No. 13225-H08H) (human) (UniProt P09923); assay: sandwich ECL (MSD), capture AbD54140ad; ST03, HIAP nominal 64.00 ng/mL
[10] = target: Human Alkaline Phosphatase/ALPI Protein (His Tag) (Sino Biological Cat. No. 13225-H08H) (human) (UniProt P09923); assay: sandwich ECL (MSD), capture AbD54140ad; ST04, HIAP nominal 32.00 ng/mL
[11] = target: Human Alkaline Phosphatase/ALPI Protein (His Tag) (Sino Biological Cat. No. 13225-H08H) (human) (UniProt P09923); assay: sandwich ECL (MSD), capture AbD54140ad; ST05, HIAP nominal 16.00 ng/mL
[12] = target: Human Alkaline Phosphatase/ALPI Protein (His Tag) (Sino Biological Cat. No. 13225-H08H) (human) (UniProt P09923); assay: sandwich ECL (MSD), capture AbD54140ad; ST06, HIAP nominal 8.000 ng/mL
[13] = target: Human Alkaline Phosphatase/ALPI Protein (His Tag) (Sino Biological Cat. No. 13225-H08H) (human) (UniProt P09923); assay: sandwich ECL (MSD), capture AbD54140ad; ST07, HIAP nominal 4.000 ng/mL
[14] = target: Human Alkaline Phosphatase/ALPI Protein (His Tag) (Sino Biological Cat. No. 13225-H08H) (human) (UniProt P09923); assay: sandwich ECL (MSD), capture AbD54140ad; ST08, HIAP nominal 2.000 ng/mL
[15] = target: Human Alkaline Phosphatase/ALPI Protein (His Tag) (Sino Biological Cat. No. 13225-H08H) (human) (UniProt P09923); assay: sandwich ECL (MSD), capture AbD54140ad; ST09, HIAP nominal 1.000 ng/mL
[16] = target: Human Alkaline Phosphatase/ALPI Protein (His Tag) (Sino Biological Cat. No. 13225-H08H) (human) (UniProt P09923); assay: sandwich ECL (MSD), capture AbD54140ad; ST10, HIAP nominal 0.5000 ng/mL
[17] = target: Human Alkaline Phosphatase/ALPI Protein (His Tag) (Sino Biological Cat. No. 13225-H08H) (human) (UniProt P09923); assay: sandwich ECL (MSD), capture AbD54140ad; ULOQ01, HIAP nominal 256.0 ng/mL
[18] = target: Human Alkaline Phosphatase/ALPI Protein (His Tag) (Sino Biological Cat. No. 13225-H08H) (human) (UniProt P09923); assay: sandwich ECL (MSD), capture AbD54140ad; ULOQ02, HIAP nominal 256.0 ng/mL
[19] = target: Human Alkaline Phosphatase/ALPI Protein (His Tag) (Sino Biological Cat. No. 13225-H08H) (human) (UniProt P09923); assay: sandwich ECL (MSD), capture AbD54140ad; LLOQ01, HIAP nominal 0.5000 ng/mL
[20] = target: Human Alkaline Phosphatase/ALPI Protein (His Tag) (Sino Biological Cat. No. 13225-H08H) (human) (UniProt P09923); assay: sandwich ECL (MSD), capture AbD54140ad; LLOQ02, HIAP nominal 0.5000 ng/mL

Sequence of UniProt P09923 (P09923 20-503 limits assumed): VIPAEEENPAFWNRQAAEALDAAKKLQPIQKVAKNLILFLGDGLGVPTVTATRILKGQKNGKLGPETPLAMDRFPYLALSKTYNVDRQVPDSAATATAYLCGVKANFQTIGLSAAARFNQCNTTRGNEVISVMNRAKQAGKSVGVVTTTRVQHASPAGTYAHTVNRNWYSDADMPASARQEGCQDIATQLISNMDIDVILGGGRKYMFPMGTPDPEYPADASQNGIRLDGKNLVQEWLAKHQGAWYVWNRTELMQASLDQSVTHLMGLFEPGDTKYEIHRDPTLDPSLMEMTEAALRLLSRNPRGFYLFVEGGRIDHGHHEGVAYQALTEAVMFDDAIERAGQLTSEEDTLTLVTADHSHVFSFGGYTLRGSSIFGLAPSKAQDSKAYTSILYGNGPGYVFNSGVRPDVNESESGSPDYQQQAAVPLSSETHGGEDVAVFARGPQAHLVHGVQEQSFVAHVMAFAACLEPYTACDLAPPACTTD

Instrument Response [1]: 444000 | Instrument Response [2]: 456000 | Instrument Response [4]: 9430 | Instrument Response [5]: 64000 | Instrument Response [6]: 68900 | Instrument Response [7]: 504000 | Instrument Response [8]: 416000 | Instrument Response [9]: 301000 | Instrument Response [10]: 186000 | Instrument Response [11]: 101000 | Instrument Response [12]: 54400 | Instrument Response [13]: 27300 | Instrument Response [14]: 13000 | Instrument Response [15]: 7040 | Instrument Response [16]: 3760 | Instrument Response [17]: 508000 | Instrument Response [18]: 528000 | Instrument Response [19]: 3360 | Instrument Response [20]: 3260
Substance: sulfo-tagged anti-HIAP monoclonal antibody AbD54130ad from BioRad
Instrument Response [3]: 9110
